Measured values: patent US20210363268A1

Target: Biotinylated Human CD39-His
Experiment: MSD equilibrium; Fab

Kd: 0.053 nM
Substance: SRF399-C
